The text below walks through data of publication PMC4014539, “PEG-Protein Interaction Induced Contraction of NalD Chains” (PLoS ONE, 2014).

This series deals with the molecule itself. Description: AUC; Beckman Optima XL-I, UV detection at 280 nm, 45,000 rpm, 20°C; NalD in aqueous solution before addition of PEG3350; apparent molar masses from peak positions.

B1: NalD (natural protein)
chain: MRRTKEDSEKTRTAILLAAEELFLEKGVSHTSLEQIARAAGVTRGAVYWHFQNKAHLFNEMLNQVRLPPEQLTERLSGCDGSDPLRSLYDLCLEAVQSLLTQEKKRRILTILMQRCEFTEELREAQERNNAFVQMFIELCEQLFARDECRVRLHPGMTPRIASRALHALILGLFNDWLRDPRLFDPDTDAEHLLEPMFRGLVRDWGQASSAP
notes: NalD, TetR family repressor of the MexAB-OprM multi-drug efflux operon, Pseudomonas aeruginosa PAO1; a protein of 212 amino acids; nalD gene amplified by PCR and cloned into PET-30a between NdeI and XhoI; also called NalD protein; regulator of MexAB-OprM multi-drug efflux systems; source: E. coli BL21 star (DE3), purified (SFF, Heparin, Ni-NTA, monoQ columns)
Regarding B1, the binding result is recorded as “binds”.
